The values that follow are results of earlier work, collected in article PMC11866755.

Where only a bound is given, the exact number is not on record here.

Broadly, the pKa is the negative logarithm of the acid dissociation constant.

Targets include Asp42 (UniProt position 63, KRGCADNCPKN); Asp59 (UniProt position 80, VCCSTDKCN--); Glu17 (UniProt position 38, YKTCPEGKNLC); His4 (UniProt position 25, YTLKCHNTQLP); Asp101 (UniProt position 119, KKIVSDGNGMN); Asp119 (UniProt position 137, RCKGTDVQAWI); Asp18 (UniProt position 36, KRHGLDNYRGY); Asp48 (UniProt position 66, TNRNTDGSTDY); Asp52 (UniProt position 70, TDGSTDYGILQ); Asp66 (UniProt position 84, RWWCNDGRTPG); Asp87 (UniProt position 105, ALLSSDITASV); Glu35 (UniProt position 53, CAAKFESNFNT); Glu7 (UniProt position 25, VFGRCELAAAM); His15 (UniProt position 33, AAMKRHGLDNY).

What all share (test): NMR
For a further data set, the target named is Asp40 (UniProt position 122, RLLLVDTPETK). As to conditions: folded protein, ligand state not stated.
The target of the next data set is Asp77 (UniProt position 159, IEVEFDKGQRT). The settings on record: folded protein, ligand state not stated.
For a further data set, the target named is Asp83 (UniProt position 165, KGQRTDKYGRG). As to conditions: folded protein, ligand state not stated.
A further data set concerns the target Asp95 (UniProt position 177, AYIYADGKMVN). The settings on record: folded protein, ligand state not stated.
The target in a further data set is Glu10 (UniProt position 92, KKLHKEPATLI). As to conditions: folded protein, ligand state not stated.
The next data set addresses Glu101 (UniProt position 183, GKMVNEALVRQ). The settings on record: folded protein, ligand state not stated.
The target of a further data set is Glu122 (UniProt position 204, GNNTHEQLLRK). As to conditions: folded protein, ligand state not stated.
The next data set deals with Glu129 (UniProt position 211, LLRKAEAQAKK). The settings on record: folded protein, ligand state not stated.
In the next data set the target is Glu135 (UniProt position 217, AQAKKEKLNIW). The settings on record: folded protein, ligand state not stated.
For a further data set, the target named is Glu43 (UniProt position 125, LVDTPETKHPK). The settings on record: folded protein, ligand state not stated.
For the next data set, the target named is Glu52 (UniProt position 134, PKKFNEKYGPE). As to conditions: folded protein, ligand state not stated.
In another data set the target is Glu57 (UniProt position 139, EKYGPEASAFT). The settings on record: folded protein, ligand state not stated.
For another data set, the target named is Glu67 (UniProt position 149, TKKMVENAKKI). As to conditions: folded protein, ligand state not stated.
The next data set concerns the target Glu73 (UniProt position 155, NAKKIEVEFDK). As to conditions: folded protein, ligand state not stated.
For the next data set, the target named is Glu75 (UniProt position 157, KKIEVEFDKGQ). As to conditions: folded protein, ligand state not stated.
The target of another data set is His121 (UniProt position 203, KGNNTHEQLLR). The settings on record: folded protein, ligand state not stated.
For the next data set, the target named is His8 (UniProt position 90, STKKLHKEPAT). As to conditions: folded protein, ligand state not stated.
Data set [1] concerns the target Glu2 (position 2, ----GEAHG--). As to conditions: free peptide in solution.
Data set [2] addresses His4 (position 4, --GEAHG----). The settings on record: free peptide in solution.
In data set [3] the target is Glu4 (position 4, --GHAEG----). As to conditions: free peptide in solution.
In data set [4] the target is His2 (position 2, ----GHAEG--). The settings on record: free peptide in solution.
The target in data set [5] is His2 (position 2, ----GHAHG--). As to conditions: free peptide in solution.
Data set [6] has as its target His4 (position 4, --GHAHG----). As to conditions: free peptide in solution.
The target of data set [7] is Glu2 (position 2, ----GEAEG--). As to conditions: free peptide in solution.
For data set [8], the target named is Glu4 (position 4, --GEAEG----). The settings on record: free peptide in solution.

Regarding “Cardiotoxin V (cytotoxin 5, CTX A5) (Naja atra (printed as Naja naja atra, Chinese/Taiwan cobra))”, the pKa was 3.2 in the data set with Asp42, under 2.0 with Asp59, 4.0 with Glu17 and 5.5 with His4.
Take “Hen egg-white lysozyme (HEWL) (Gallus gallus)”: the pKa with Asp101 is given as 4.5 ±0.1; in the data set with Asp119 it was 3.5 ±0.3; with Asp18, 2.8 ±0.3; with Asp48 it was 1.4 ±0.2; in the data set with Asp52, 3.6 ±0.3; with Asp66, 1.2 ±0.2. In addition, the pKa was 2.2 ±0.1 in the data set with Asp87, 6.1 ±0.4 with Glu35, 2.6 ±0.2 in the data set with Glu7 and 5.5 ±0.2 with His15.
For “Staphylococcal nuclease Delta+PHS (printed as ΔPHS) (Staphylococcus aureus; G50F;V51N;P117G;H124L;S128A;del44-49)”, the pKa with Asp40 is recorded as 3.9; in the data set with Asp77 it was under 2.2; in the data set with Asp83, under 2.2; in the data set with Asp95, 2.2; with Glu10 it was 2.8; with Glu101, 3.8. Besides, the pKa is on record as 3.9 in the data set with Glu122; 3.8 with Glu129; 3.8 with Glu135; 4.3 in the data set with Glu43; 3.9 with Glu52; 3.5 with Glu57. Further, the pKa in the data set with Glu67 is recorded as 3.58; with Glu73, 3.3; with Glu75, 3.3; in the data set with His121, 5.24; with His8, 6.5.

B1: Pentapeptide GEAHG (synthetic) (peptide)
chain: GEAHG
On to B1, for which the pKa in data set [1] is on record as 3.76; in data set [2], 6.59.

B2: Pentapeptide GHAEG (synthetic) (peptide)
chain: GHAEG
As to B2, the pKa in data set [3] is given as 3.81; in data set [4], 6.14.

B3: Pentapeptide GHAHG (synthetic) (peptide)
chain: GHAHG
Take B3: the pKa is given as 6.23 in [5] and 6.66 in data set [6].

B4: Pentapeptide GEAEG (synthetic) (peptide)
chain: GEAEG
With B4, the pKa in [7] is given as 4.06; in [8], 4.04.
